The numbers were not newly measured in paper PMC12188314, which cites them from elsewhere.

The Kd is the equilibrium constant for the complex coming apart.

The data set addresses Rab27A (Mus musculus) (UniProt Q9ERI2).
Chain of UniProt Q9ERI2 (Q9ERI2 2-221): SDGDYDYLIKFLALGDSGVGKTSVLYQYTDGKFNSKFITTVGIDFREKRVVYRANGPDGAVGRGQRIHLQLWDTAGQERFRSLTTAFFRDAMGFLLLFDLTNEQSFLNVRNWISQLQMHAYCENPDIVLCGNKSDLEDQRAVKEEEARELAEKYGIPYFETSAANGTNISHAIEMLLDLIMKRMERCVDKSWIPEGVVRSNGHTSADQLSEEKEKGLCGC

With Slp2-a SHD (from UniProt Q99N50), the Kd is 0.013 µM.
